{"source": "patent US10669306B2", "about": "“Solid supports for use in solid-phase peptide synthesis, kits, and related methods” (UNIVERSITY OF WASHINGTON, priority 2016, dated 2020)", "origin": "cited, not measured here", "biological_target": "integrin αvβ3 receptor (Homo sapiens, UniProt P05106+P06756)", "sequence (P06756 31-889 limits assumed)": "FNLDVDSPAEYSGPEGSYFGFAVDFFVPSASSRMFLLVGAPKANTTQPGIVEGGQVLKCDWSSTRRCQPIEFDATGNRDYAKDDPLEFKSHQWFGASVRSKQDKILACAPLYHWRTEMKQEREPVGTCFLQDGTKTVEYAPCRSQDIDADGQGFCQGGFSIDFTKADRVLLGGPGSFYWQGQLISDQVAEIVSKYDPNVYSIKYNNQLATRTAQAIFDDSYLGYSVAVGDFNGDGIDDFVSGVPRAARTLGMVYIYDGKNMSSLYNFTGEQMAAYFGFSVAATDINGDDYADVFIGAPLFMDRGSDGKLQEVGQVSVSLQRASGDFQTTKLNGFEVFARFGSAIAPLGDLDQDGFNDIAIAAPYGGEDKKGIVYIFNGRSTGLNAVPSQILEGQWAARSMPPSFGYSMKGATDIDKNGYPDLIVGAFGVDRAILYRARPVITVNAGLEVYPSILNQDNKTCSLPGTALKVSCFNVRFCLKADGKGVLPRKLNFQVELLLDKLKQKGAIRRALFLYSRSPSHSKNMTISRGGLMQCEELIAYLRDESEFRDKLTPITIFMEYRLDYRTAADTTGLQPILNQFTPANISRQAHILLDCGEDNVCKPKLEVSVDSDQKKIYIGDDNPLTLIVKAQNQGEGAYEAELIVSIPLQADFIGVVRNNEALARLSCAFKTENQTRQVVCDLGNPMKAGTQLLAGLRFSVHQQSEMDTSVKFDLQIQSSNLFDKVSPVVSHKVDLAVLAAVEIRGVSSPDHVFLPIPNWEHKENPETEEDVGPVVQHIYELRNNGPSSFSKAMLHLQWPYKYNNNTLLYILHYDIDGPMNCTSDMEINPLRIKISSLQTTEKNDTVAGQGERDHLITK", "sequence (P06756 891-1048 partner limits assumed)": "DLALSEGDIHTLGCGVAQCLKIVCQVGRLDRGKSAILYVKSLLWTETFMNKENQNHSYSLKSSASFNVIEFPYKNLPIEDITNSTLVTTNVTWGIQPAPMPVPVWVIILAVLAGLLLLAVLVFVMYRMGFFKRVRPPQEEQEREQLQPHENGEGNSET", "sequence (P05106 27-788)": "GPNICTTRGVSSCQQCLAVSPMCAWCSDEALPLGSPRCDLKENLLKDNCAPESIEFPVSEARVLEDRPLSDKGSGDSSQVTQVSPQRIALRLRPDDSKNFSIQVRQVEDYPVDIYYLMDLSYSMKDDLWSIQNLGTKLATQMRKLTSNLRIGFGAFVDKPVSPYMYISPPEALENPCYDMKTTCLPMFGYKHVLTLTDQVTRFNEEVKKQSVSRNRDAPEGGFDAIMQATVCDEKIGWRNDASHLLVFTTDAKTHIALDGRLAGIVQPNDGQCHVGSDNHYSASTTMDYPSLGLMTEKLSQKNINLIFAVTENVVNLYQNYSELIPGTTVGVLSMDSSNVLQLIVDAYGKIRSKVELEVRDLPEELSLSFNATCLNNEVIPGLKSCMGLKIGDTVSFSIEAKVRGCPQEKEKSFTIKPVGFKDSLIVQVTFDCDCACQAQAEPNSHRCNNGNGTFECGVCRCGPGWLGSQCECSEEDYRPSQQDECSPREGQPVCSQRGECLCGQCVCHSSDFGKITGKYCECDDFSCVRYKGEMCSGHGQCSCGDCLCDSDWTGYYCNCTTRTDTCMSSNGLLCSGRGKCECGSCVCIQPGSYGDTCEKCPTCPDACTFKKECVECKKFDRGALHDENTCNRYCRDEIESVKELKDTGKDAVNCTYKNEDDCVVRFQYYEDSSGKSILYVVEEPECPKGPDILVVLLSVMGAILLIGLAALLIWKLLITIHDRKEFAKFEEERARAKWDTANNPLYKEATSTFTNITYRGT", "settings": "cyclic form; Prante, O., et al. Bioconjug. Chem. 2007, 18, 254"}
{"substance": "CRGD(D-F): Cyclic CRGD(D)-F, a commercially available integrin binding peptide (ANASPEC)", "values": [{"measurement": "binding affinity for integrin αvβ3 receptor", "result": "nanomolar affinity"}]}
